The numbers were not newly measured in paper PMC6235721, which cites them from elsewhere.

The target in this data set is FabI (Escherichia coli) (UniProt P0AEK4).

pKd: −log10 of the molar value.

Sequence of UniProt P0AEK4 (P0AEK4 2-262): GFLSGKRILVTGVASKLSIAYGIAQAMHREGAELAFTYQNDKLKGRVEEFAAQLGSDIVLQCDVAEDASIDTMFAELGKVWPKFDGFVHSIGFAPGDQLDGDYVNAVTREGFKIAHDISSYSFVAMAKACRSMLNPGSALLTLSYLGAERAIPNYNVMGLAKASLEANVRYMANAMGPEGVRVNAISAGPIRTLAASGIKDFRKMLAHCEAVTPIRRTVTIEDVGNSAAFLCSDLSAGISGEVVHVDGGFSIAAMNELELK

For crypto-58-AcpP (from UniProt P0A6A8), the pKd was 6.15.

The pKd is the Kd on a negative log10 scale, so that one unit is a factor of ten.
